From publication PMC12506513, “Conformational dynamics of the bacterial E3 ligase SspH1” (The Journal of Biological Chemistry, 2025)
Where a chain is given by its changes, count along the chain named. Names may count otherwise.

T1: full-length SspH1 (1 to 700) (Salmonella, UniProt D0ZVG2 1-700)
T1 construct: also called FL SspH1; FL protein; source: E. coli BL21 Gold, purified (nickel-nitrilotriacetic acid resin, 3C protease, gel filtration)
T1 sequence: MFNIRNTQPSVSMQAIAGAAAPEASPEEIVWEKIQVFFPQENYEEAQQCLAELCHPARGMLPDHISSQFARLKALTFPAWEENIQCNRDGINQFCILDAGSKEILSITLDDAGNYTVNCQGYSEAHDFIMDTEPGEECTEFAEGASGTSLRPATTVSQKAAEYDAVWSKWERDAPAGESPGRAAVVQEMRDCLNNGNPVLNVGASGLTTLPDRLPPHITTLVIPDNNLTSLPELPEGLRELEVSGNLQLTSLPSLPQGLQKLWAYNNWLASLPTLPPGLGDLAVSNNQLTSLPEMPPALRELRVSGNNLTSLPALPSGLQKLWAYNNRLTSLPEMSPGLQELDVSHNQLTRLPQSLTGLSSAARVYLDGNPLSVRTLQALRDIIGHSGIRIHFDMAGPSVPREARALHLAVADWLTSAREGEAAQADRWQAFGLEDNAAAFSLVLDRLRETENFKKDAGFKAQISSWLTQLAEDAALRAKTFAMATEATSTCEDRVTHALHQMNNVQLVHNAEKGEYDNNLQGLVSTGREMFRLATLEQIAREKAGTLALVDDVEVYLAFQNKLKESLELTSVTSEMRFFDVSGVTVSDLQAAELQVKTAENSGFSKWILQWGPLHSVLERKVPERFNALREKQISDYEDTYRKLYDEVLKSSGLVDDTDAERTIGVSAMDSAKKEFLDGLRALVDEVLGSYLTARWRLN

B1: SspH1 NEL domain (405 to 700) (domain or fragment)
chain: RALHLAVADWLTSAREGEAAQADRWQAFGLEDNAAAFSLVLDRLRETENFKKDAGFKAQISSWLTQLAEDAALRAKTFAMATEATSTCEDRVTHALHQMNNVQLVHNAEKGEYDNNLQGLVSTGREMFRLATLEQIAREKAGTLALVDDVEVYLAFQNKLKESLELTSVTSEMRFFDVSGVTVSDLQAAELQVKTAENSGFSKWILQWGPLHSVLERKVPERFNALREKQISDYEDTYRKLYDEVLKSSGLVDDTDAERTIGVSAMDSAKKEFLDGLRALVDEVLGSYLTARWRLN
notes: also called isolated NEL domain; source: E. coli BL21 Gold, purified (nickel-nitrilotriacetic acid resin, 3C protease, gel filtration)
B2: ΔNSspH1 (161-700) (domain or fragment)
chain: AEYDAVWSKWERDAPAGESPGRAAVVQEMRDCLNNGNPVLNVGASGLTTLPDRLPPHITTLVIPDNNLTSLPELPEGLRELEVSGNLQLTSLPSLPQGLQKLWAYNNWLASLPTLPPGLGDLAVSNNQLTSLPEMPPALRELRVSGNNLTSLPALPSGLQKLWAYNNRLTSLPEMSPGLQELDVSHNQLTRLPQSLTGLSSAARVYLDGNPLSVRTLQALRDIIGHSGIRIHFDMAGPSVPREARALHLAVADWLTSAREGEAAQADRWQAFGLEDNAAAFSLVLDRLRETENFKKDAGFKAQISSWLTQLAEDAALRAKTFAMATEATSTCEDRVTHALHQMNNVQLVHNAEKGEYDNNLQGLVSTGREMFRLATLEQIAREKAGTLALVDDVEVYLAFQNKLKESLELTSVTSEMRFFDVSGVTVSDLQAAELQVKTAENSGFSKWILQWGPLHSVLERKVPERFNALREKQISDYEDTYRKLYDEVLKSSGLVDDTDAERTIGVSAMDSAKKEFLDGLRALVDEVLGSYLTARWRLN
notes: also called WT SspH1; source: E. coli BL21 Gold, purified (nickel-nitrilotriacetic acid resin, 3C protease, gel filtration)
B3: E487R SspH1 (domain or fragment)
chain: B2 chain with E327R
notes: also called E487R mutant; source: E. coli BL21 Gold, purified (nickel-nitrilotriacetic acid resin, 3C protease, gel filtration)
B4: PKN1 HR1b domain (residues 122-199) (domain or fragment)
chain: not shown
notes: also called HR1b PKN1; substrate PKN1; source: E. coli BL21 Gold, purified (nickel-nitrilotriacetic acid resin, 3C protease, gel filtration)

Columns and labels:
Details in all cases: both partners purified
15N-labeled ubiquitin = molecular target: T2, 15N-labeled ubiquitin (UniProt P0CG48 1-76, 15N isotope-enriched); test: NMR titration; 15N-Ub titrated with SspH1 constructs; 1H-15N HSQC, 800 MHz; chemical shift perturbations and line broadening of Ub backbone amides
T2 construct: also called 15N-Ub; free Ub

ΔNSspH1 (161-700) = molecular target: B2; test: SEC-MALS; SEC-MALLS of FL SspH1 and ΔNSspH1 alone and with the substrate PKN1; in the range of concentrations explored
[1] = molecular target: T1, full-length SspH1 (1 to 700); test: as above

Binder | binding result (15N-labeled ubiquitin) | stoichiometry N (ΔNSspH1 (161-700)) | stoichiometry N [1]
B1 | binds | – | –
B2 | binds | – | –
B3 | binds | – | –
B4 | – | 1 | 1
